The target in data set [1] is UbcH5B-GSlinker-ccRING3 fusion protein (UniProt Q86YT6). The data set is described as follows: crystal structure.
The data set “SEC-MALS” deals with the molecule itself. The data set is described as follows: SEC-MALS. Background: In gel filtration, larger molecules generally elute earlier.
The data set “crystal structure” deals with the molecule itself. The data set is described as follows: crystal structure.

Take “UbcH5B-GSlinker-ccRING3 fusion protein (from UniProt Q86YT6 936-1006)”: the stoichiometry N (commonly the number of molecules, sites or subunits per partner or assembly) in data set [1] turned out to be 2.

B1: ANK-RING1-3 of hMIB1 (residues 417-1006) (domain or fragment)
chain: QLLKKLFETQESGDLNEELVKAAANGDVAKVEDLLKRPDVDVNGQCAGHTAMQAASQNGHVDILKLLLKQNVDVEAEDKDGDRAVHHAAFGDEGAVIEVLHRGSADLNARNKRRQTPLHIAVNKGHLQVVKTLLDFGCHPSLQDSEGDTPLHDAISKKRDDILAVLLEAGADVTITNNNGFNALHHAALRGNPSAMRVLLSKLPRPWIVDEKKDDGYTALHLAALNNHVEVAELLVHQGNANLDIQNVNQQTALHLAVERQHTQIVRLLVRAGAKLDIQDKDGDTPLHEALRHHTLSQLRQLQDMQDVGKVDAAWEPSKNTLIMGLGTQGAEKKSAASIACFLAANGADLSIRNKKGQSPLDLCPDPNLCKALAKCHKEKVSGQVGSRSPSMISNDSETLEECMVCSDMKRDTLFGPCGHIATCSLCSPRVKKCLICKEQVQSRTKIEECVVCSDKKAAVLFQPCGHMCACENCANLMKKCVQCRAVVERRVPFIMCCGGKSSEDATDDISSGNIPVLQKDKDNTNVNADVQKLQQQLQDIKEQTMCPVCLDRLKNMIFLCGHGTCQLCGDRMSECPICRKAIERRILLY
For the molecule B1, the “stoichiometry N” value in the data set “SEC-MALS” turned out to be 2.

B2: ccRING3 region of human MIB1 (third RING domain and adjacent coiled coil region, residues 936-1006) (domain or fragment)
chain: KDKDNTNVNADVQKLQQQLQDIKEQTMCPVCLDRLKNMIFLCGHGTCQLCGDRMSECPICRKAIERRILLY
For the molecule B2, the “stoichiometry N” value in “crystal structure” came out at 2.

Source of the values: paper PMC10925295 (bioRxiv, 2024).
